The record followed here is patent publication US20130309222A1 (Janssen / Centocor, published 2013).

Assay [1] deals with infliximab. Kind of assay: SPR (Biacore S51), biotinylated peptide on streptavidin chip, infliximab as analyte, 1:1 Langmuir fit, average of N=2.
Assay [2] has as its target infliximab. Kind of assay: ELISA, infliximab captured on goat anti-human Fc, biotinylated peptide titrated, streptavidin-HRP, luminescence.

Ends that are not written are not given here.

Chain of infliximab (VH, as listed by the source, chain 1 of 2): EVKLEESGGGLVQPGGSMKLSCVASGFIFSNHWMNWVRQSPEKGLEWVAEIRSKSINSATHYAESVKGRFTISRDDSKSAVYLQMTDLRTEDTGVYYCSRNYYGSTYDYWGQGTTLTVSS
Chain of infliximab (VL, as listed by the source, chain 2 of 2): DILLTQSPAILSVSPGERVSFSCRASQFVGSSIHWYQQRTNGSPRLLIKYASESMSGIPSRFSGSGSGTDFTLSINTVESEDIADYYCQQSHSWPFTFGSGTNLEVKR

B1: biotinylated, chemically synthesized peptide having SEQ ID NO: 2 (peptide)
peptide: AGYVCDPAGPNCWA
modifications: cysteine pairing not given here; also: biotinylated, position not given here
notes: Fmoc solid phase synthesis; also called 1011A
B1: in the assay with infliximab [1], the affinity, expressed as Kd, was 17.1 nM. The “EC50 (read off the curve)” value in the assay with infliximab [2] is ~3000 nM.

B2: biotinylated, chemically synthesized peptide having SEQ ID NO: 10 (peptide)
peptide: AGVWCGDETLPPSICFR
modifications: cysteine pairing not given here; also: biotinylated, position not given here
notes: Fmoc solid phase synthesis; also called 1067B
The molecule B2 returned a Kd with infliximab [1] of 9.17 nM. In addition, the concentration for a half-maximal effect (EC50 (read off the curve)) in the assay with infliximab [2] was ~10000 nM.
